In the PETadex activity labels (doi:10.1021/acscatal.2c02275):

B1: unnamed (protein)
chain: MANPYERGPDPTESSIEAVRGPFAVAQTTVSRLQADGFGGGTIYYPTDTSQGTFGAVAISPGFTAGQESIAWLGPRIASQGFVVITIDTITRLDQPDSRGRQLQAALDHLRTNSVVRNRIDPNRMAVMGHSMGGGGALSAAANNTSLEAAIPLQGWHTRKNWSSVRTPTLVVGAQLDTIAPVSSHSEAFYNSLPSDLDKAYMELRGASHMVSNTPDTTTAKYSIAWLKRFVDDDLRYEQFLCPAPDDFAISEYRSTCPF
B2: unnamed (protein)
chain: MANPYERGPDPTESSIEAVRGPFAVAQTTVSRLQADGFGGGTIYYPTDTSQGTFGAVAISPGYTAGQESIAWLGPRIASQGFVVITIDTITRLDQPDSRGRQLQAALDHLRTNSVVRNRIDPNRMAVMGHSMGGGGALSAAANNTSLEAAIPLQGWHTRKNWSSVRTPTLVVGAQLDTIAPVSSHSEAFYNSLPSDLDKAYMELRGASHLVSNTPDTTTAKYSIAWLKRFVDDDLRYEQFLCPAPDDFAISEYRSTCPF
B3: unnamed (protein)
chain: MANPYERGPDPTESSIEAVRGPFAVAQTTVSRLQADGFGGGTIYYPTDTSQGTFGAVAISPGFTAGQESIAWLGPRIASQGFVVITIDTITRLDQPDSRGRQLQAALDHLRTNSVVRNRIDPNRMAVMGHSMGGGGALSAAANNTSLEAAIPLQGWHTRKNWSSVRTPTLVVGAQLDTIAPVSSHSEAFYNSLPSDLDKAYMELRGASHHVSNTPDTTTAKYSIAWLKRFVDDDLRYEQFLCPAPDDFAISEYRSTCPF
B4: unnamed (protein)
chain: MANPYERGPDPTESSIEAVRGPFAVAQTTVSRLQADGFGGGTIYYPTDTSQGTFGAVAISPGFTAGQESIAWLGPRIASQGFVVITIDTITRLDQPDSRGRQLQAALDHLRTNSVVRNRIDPNRMAVMGHSMGGGGALSAAANNTSLEAAIPLQGWHTRKNWSSVRTPTLVVGAQLDTIAPVSSHSEAFYNSLPSDLDKAYMELRGASHCVSNTPDTTTAKYSIAWLKRFVDDDLRYEQFLCPAPDDFAISEYRSTCPF
B5: unnamed (protein)
chain: MANPYERGPDPTESSIEAVRGPFAVAQTTVSRLQADGFGGGTIYYPTDTSQGTFGAVAISPGFTAGQESIAWLGPRIASQGFVVITIDTITRLDQPDSRGRQLQAALDHLRTNSVVRNRIDPNRMAVMGHSMGGGGALSAAANNTSLEAAIPLQGWHTRKNWSSVRTPTLVVGAQLDTIAPVSSHSEAFYNSLPSDLDKAYMELRGASHTVSNTPDTTTAKYSIAWLKRFVDDDLRYEQFLCPAPDDFAISEYRSTCPF
B6: unnamed (protein)
chain: MANPYERGPDPTESSIEAVRGPFAVAQTTVSRLQADGFGGGTIYYPTDTSQGTFGAVAISPGFTAGQESIAWLGPRIASQGFVVITIDTITRLDQPDSRGRQLQAALDHLRTNSVVRNRIDPNRMAVMGHSMGGGGALSAAANNTSLEAAIPLQGWHTRKNWSSVRTPTLVVGAQLDTIAPVSSHSEAFYNSLPSDLDKAYMELRGASHDVSNTPDTTTAKYSIAWLKRFVDDDLRYEQFLCPAPDDFAISEYRSTCPF
B7: unnamed (protein)
chain: MANPYERGPDPTESSIEAVRGPFAVAQTTVSRLQADGFGGGTIYYPTDTSQGTFGAVAISPGFTAGQESIAWLGPRIASQGFVVITIDTITRLDQPDSRGRQLQAALDHLRTNSVVRNRIDPNRMAVMGHSMGGGGALSAAANNTSLEAAIPLQGAHTRKNWSSVRTPTLVVGAQLDTIAPVSSHSEAFYNSLPSDLDKAYMELRGASHLVSNTPDTTTAKYSIAWLKRFVDDDLRYEQFLCPAPDDFAISEYRSTCPF
B8: unnamed (protein)
chain: MANPYERGPDPTESSIEAVRGPFAVAQTTVSRLQADGFGGGTIYYPTDTSQGTFGAVAISPGFTAGQESIAWLGPRIASQGFVVITIDTITRLDQPDSRGRQLQAALDHLRTNSVVRNRIDPNRMAVMGHSMGGGGALSAAANNTSLEAAIPLQGWHTRKNWSSVRTPTLVVGAQLDTIAPVSSHSEAFYNSLPSDLDKAYMELRGASHPVSNTPDTTTAKYSIAWLKRFVDDDLRYEQFLCPAPDDFAISEYRSTCPF
B9: unnamed (protein)
chain: MANPYERGPDPTESSIEAVRGPFAVAQTTVSRLQADGFGGGTIYYPTDTSQGTFGAVAISPGFTAGQESIAWLGPRIASQGFVVITIDTITRLDQPDSRGRQLQAALDHLRTNSVVRNRIDPNRMAVMGHSMGGGGALSAAANNTSLEAAIPLQGFHTRKNWSSVRTPTLVVGAQLDTIAPVSSHSEAFYNSLPSDLDKAYMELRGASHLVSNTPDTTTAKYSIAWLKRFVDDDLRYEQFLCPAPDDFAISEYRSTCPF
B10: unnamed (protein)
chain: MANPYERGPDPTESSIEAVRGPFAVAQTTVSRLQADGFGGGTIYYPTDTSQGTFGAVAISPGFTAGQESIAWLGPRIASQGFVVITIDTITRLDQPDSRGRQLQAALDHLRTNSVVRNRIDPNRMAVMGHSMGGGGALSAAANNTSLEAAIPLQGHHTRKNWSSVRTPTLVVGAQLDTIAPVSSHSEAFYNSLPSDLDKAYMELRGASHLVSNTPDTTTAKYSIAWLKRFVDDDLRYEQFLCPAPDDFAISEYRSTCPF
B11: unnamed (protein)
chain: MANPYERGPDPTESSIEAVRGPFAVAQTTVSRLQADGFGGGTIYYPTDTSQGTFGAVAISPGFTAGQESIAWLGPRIASQGFVVITIDTITRLDQPDSRGRQLQAALDHLRTNSVVRNRIDPNRMAVMGHSMGGGGALSAAANNTSLEAAIPLQGWHTRKNWSSVRTPTLVVGAQLDTIAPVSSHSEAFYNSLPSDLDKAYMELRGASHFVSNTPDTTTAKYSIAWLKRFVDDDLRYEQFLCPAPDDFAISEYRSTCPF
B12: unnamed (protein)
chain: MANPYERGPDPTESSIEAVRGPFAVAQTTVSRLQADGFGGGTIYYPTDTSQGTFGAVAISPGFTAGQESIAWLGPRIASQGFVVITIDTITRLDQPDSRGRQLQAALDHLRTNSVVRNRIDPNRMAVMGHSMGGGGALSAAANNTSLEAAIPLQGWHTRKNWSSVRTPTLVVGAQLDTIAPVSSHSEAFYNSLPSDLDKAYMELRGASHRVSNTPDTTTAKYSIAWLKRFVDDDLRYEQFLCPAPDDFAISEYRSTCPF
B13: unnamed (protein)
chain: MANPYERGPDPTESSIEAVRGPFAVAQTTVSRLQADGFGGGTIYYPTDTSQGTFGAVAISPGFTAGQESIAWLGPRIASQGFVVITIDTITRLDQPDSRGRQLQAALDHLRTNSVVRNRIDPNRMAVMGHSMGGGGALSAAANNTSLEAAIPLQGWHTRKNWSSVRTPTLVVGAQLDTIAPVSSHSEAFYNSLPSDLDKAYMELRGASHVVSNTPDTTTAKYSIAWLKRFVDDDLRYEQFLCPAPDDFAISEYRSTCPF
B14: unnamed (protein)
chain: MANPYERGPDPTESSIEAVRGPFAVAQTTVSRLQADGFGGGTIYYPTDTSQGTFGAVAISPGATAGQESIAWLGPRIASQGFVVITIDTITRLDQPDSRGRQLQAALDHLRTNSVVRNRIDPNRMAVMGHSMGGGGALSAAANNTSLEAAIPLQGWHTRKNWSSVRTPTLVVGAQLDTIAPVSSHSEAFYNSLPSDLDKAYMELRGASHLVSNTPDTTTAKYSIAWLKRFVDDDLRYEQFLCPAPDDFAISEYRSTCPF
B15: unnamed (protein)
chain: MANPYERGPDPTESSIEAVRGPFAVAQTTVSRLQADGFGGGTIYYPTDTSQGTFGAVAISPGFTAGQESIAWLGPRIASQGFVVITIDTITRLDQPDSRGRQLQAALDHLRTNSVVRNRIDPNRMAVMGHSMGGGGALSAAANNTSLEAAIPLQGWHTRKNWSSVRTPTLVVGAQLDTIAPVSSHSEAFYNSLPSDLDKAYMELRGASHEVSNTPDTTTAKYSIAWLKRFVDDDLRYEQFLCPAPDDFAISEYRSTCPF
B16: unnamed (protein)
chain: MANPYERGPDPTESSIEAVRGPFAVAQTTVSRLQADGFGGGTIYYPTDTSQGTFGAVAISPGFTAGQESIAWLGPRIASQGFVVITIDTITRFDYPDSRGRQLQAALDHLRTNSVVRNRIDPNRMAVMGHSMGGGGALSAAANNTSLEAAIPLQGWHTRKNWSSVRTPTLVVGAQLDTIAPVSSHSEAFYNSLPSDLDKAYMELCGASHLVSNTPDTTTAKYSIAWLKRFVDDDLRYEQFLCPAPDDFAICEYRSTCPF
B17: unnamed (protein)
chain: MANPYERGPDPTESSIEAVRGPFAVAQTTVSRLQADGFGGGTIYYPTDTSQGTFGAVAISPGFTAGQESIAWLGPRIASQGFVVITIDTITRLDQPDSRGRQLQAALDHLRTNSVVRNRIDPNRMAVMGHSMGGGGALSAAANNTSLEAAIPLQGWHTRKNWSSVRTPTLVVGAQLDTIAPVSSHSEAFYNSLPSDLDKAYMELRGASHQVSNTPDTTTAKYSIAWLKRFVDDDLRYEQFLCPAPDDFAISEYRSTCPF
B18: unnamed (protein)
chain: MANPYERGPDPTESSIEAVRGPFAVAQTTVSRLQADGFGGGTIYYPTDTSQGTFGAVAISPGFTAGQESIAWLGPRIASQGFVVITIDTITRLDQPDSRGRQLQAALDHLRTNSVVRNRIDPNRMAVMGHSMGGGGALSAAANNTSLEAAIPLQGWHTRKNWSSVRTPTLVVGAQLDTYAPVSSHSEAFYNSLPSDLDKAYMELRGASHLVSNTPDTTTAKYSIAWLKRFVDDDLRYEQFLCPAPDDFAISEYRSTCPF

Substrate: gfPET
Test: Proxy for plastic degradation [Relative activity]
Settings: pH 8

| Protein | Proxy for plastic degradation |
| --- | --- |
| B1 | 74% |
| B2 | 65% |
| B3 | 54% |
| B4 | 8% |
| B5 | 48% |
| B6 | 66% |
| B7 | 5% |
| B8 | 16% |
| B9 | 8% |
| B10 | 1% |
| B11 | 58% |
| B12 | 95% |
| B13 | 61% |
| B14 | 22% |
| B15 | 6% |
| B16 | 70% |
| B17 | 94% |
| B18 | 26% |
